Assay results published in patent US20240092891A1 (SANYOU BIOPHARMACEUTICALS, published 2024).
Numbering of substitutions follows the chain as printed.

Experiments:
human CLDN18.1 [1] = biological target: T1, human CLDN18.1 (human, UniProt P56856 1-261); experiment: flow cytometry with phage supernatant, anti-M13 antibody, on human CLDN18.1-HEK293 cells
T1 construct: Overexpressed on HEK293 cells; also called human CLDN18.1-HEK293
Source text: Firstly, 1×10⁵ human CLDN18.2-HEK293T and human CLDN18.1-HEK293 cells were taken, respectively and centrifuged at a low speed of 500 g, and the supernatant was removed.

human CLDN18.2 [2] = biological target: T2, human CLDN18.2 (human); experiment: flow cytometry on human CLDN18.2-HEK293T cells
T2 construct: also called CLD18A2; huCLDN18.2

human CLDN18.1 [3] = biological target: T1, human CLDN18.1; experiment: flow cytometry, binding intensity on human CLDN18.1-HEK293 cells at different concentrations
Procedure: Therefore, antibodies (including a high concentration of 100 μg/mL) at different concentrations were used to be incubated with human CLDN18.1-HEK293 in vitro in this example. The method was as described in section 1.3.1, wherein antibodies at different concentrations were incubated with target cells human CLDN18.1-HEK293 at 4° C. for 1 h. Next, the resulting cultures were rinsed three times with the above-mentioned FACS buffer. 0.5 μg (0.5 mg/ml) of PE-labeled goat anti-human IgG Fc antibody (Abcam, ab98596) was added, and the resulting mixture was incubated at 4° C. for 1 h, and then rinsed three times with the FACS buffer.

human CLDN18.2 [4] = biological target: T2, human CLDN18.2; experiment: cell-based or functional assay

T1 sequence (P56856 whole entry): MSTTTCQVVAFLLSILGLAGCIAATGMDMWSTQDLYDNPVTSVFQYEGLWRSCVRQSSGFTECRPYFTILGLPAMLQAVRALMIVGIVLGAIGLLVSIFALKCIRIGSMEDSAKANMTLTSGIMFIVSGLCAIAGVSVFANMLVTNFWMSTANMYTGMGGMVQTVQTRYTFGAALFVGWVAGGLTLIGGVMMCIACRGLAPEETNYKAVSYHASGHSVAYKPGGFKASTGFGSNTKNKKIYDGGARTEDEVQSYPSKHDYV

B1: clone NA7-S, VHH displayed on phage (VHH)
VHH: EVQVQESGGGLVQPGGSLRLSCAASGSFFRIVAMGWYRQAPGSQRELVATITRGGSTYYADSMKGRSTISRDNAKNTVYLQMNSLKPEDTAVYYCNVRVEVPFMQPNDYWGHGTQVTVSS
notes: also called NA7-S (phage supernatant); candidate nanobody NA7-S
binding result (human CLDN18.1 [1]): no binding

B2: humanized antibody NA7-S-H2 (Fc fusion)
chain: B1 VHH with V4L, Q5V, S43K, Q44G, H112Q, Q115L
notes: not shown: Fc part implied (detected with anti-human IgG Fc; parent molecule in CDC/ADCC)
EC50 (human CLDN18.2 [2]): 0.482 µg/mL | binding intensity (MFI) at the highest concentration (human CLDN18.2 [2]): 184000 MFI

B3: humanized antibody NA4-S-H7 (Fc fusion)
chain: EVQLVESGGGLVQPGGSLRLSCAASGSIFSINVMGWYRQAPGKQRELVAGISTGGTTRYADSVKGRFTISRDNAKNTLYLQMNSLRAEDTAVYYCNADLATATSWPVRYLEVWGQGTLVTVSS
notes: as for B2
EC50 (human CLDN18.2 [2]): 0.877 µg/mL | binding intensity (MFI) at the highest concentration (human CLDN18.2 [2]): 128000 MFI | binding result (human CLDN18.1 [3]): no binding (tested: 100 µg/mL)

B4: clone NA4-S, VHH displayed on phage (VHH)
VHH: B3 chain with L4V, V63A, L78V, R86K, A87P, S123A
notes: also called NA4-S (phage supernatant); candidate nanobody NA4-S
binding result (human CLDN18.1 [1]): no binding

B5: IMAB362 antibody (antibody, V domains shown)
VH: QVQLQQPGAELVRPGASVKLSCKASGYTFTSYWINWVKQRPGQGLEWIGNIYPSDSYTNYNQKFKDKATLTVDKSSSTAYMQLSSPTSEDSAVYYCTRSWRGNSFDYWGQGTTLTVSS
VL: DIVMTQSPSSLTVTAGEKVTMSCKSSQSLLNSGNQKNYLTWYQQKPGQPPKLLIYWASTRESGVPDRFTGSGSGTDFTLTISSVQAEDLAVYYCQNDYSYPFTFGSGTKLEIKR
EC50 of ADCC cell killing effect (LDH release, human PBMC) on human CLDN18.2-HEK293T cells, run with NA7-S (human CLDN18.2 [4]): 0.0862 nM | EC50 of ADCC cell killing effect (LDH release, human PBMC) on human CLDN18.2-HEK293T cells, run with NA8-S (human CLDN18.2 [4]): 0.0636 nM | EC50 of CDC cell killing effect (MTS) on human CLDN18.2-HEK293T cells, run with NA4-S (human CLDN18.2 [4]): 0.613 nM | EC50 of CDC cell killing effect (MTS) on human CLDN18.2-HEK293T cells, run with NA7-S (human CLDN18.2 [4]): 0.628 nM | EC50 of CDC cell killing effect (MTS) on human CLDN18.2-HEK293T cells, run with NA8-S (human CLDN18.2 [4]): 1.86 nM | EC50 of CDC cell killing effect (MTS) on human CLDN18.2-KATOIII tumor cells, run with NA7-S (human CLDN18.2 [4]): 69.8 nM | EC50 of CDC cell killing effect (MTS) on human CLDN18.2-KATOIII tumor cells, run with NA8-S (human CLDN18.2 [4]): 1860 nM | IC50 of Fab-ZAP cell killing (endocytosis, MTS) on CLDN18.2-HEK293T cells, run with NA7-S (human CLDN18.2 [4]): 0.128 nM | IC50 of Fab-ZAP cell killing (endocytosis, MTS) on CLDN18.2-HEK293T cells, run with NA8-S (human CLDN18.2 [4]): 0.136 nM
